Test [1] addresses murine carbonic anhydrase 9 (CAIX) (mouse) (UniProt Q8VHB5). As to the kind of experiment: radioligand saturation binding on CHO-msCAIX cells, 8 h at 37 °C, experiment i.
Test [2] shares this target. The experiment in a line: radioligand saturation binding on CHO-msCAIX cells, 8 h at 37 °C, single experiment.

Sequence of murine carbonic anhydrase 9 (CAIX) (mouse) (Q8VHB5 32-437 limits assumed): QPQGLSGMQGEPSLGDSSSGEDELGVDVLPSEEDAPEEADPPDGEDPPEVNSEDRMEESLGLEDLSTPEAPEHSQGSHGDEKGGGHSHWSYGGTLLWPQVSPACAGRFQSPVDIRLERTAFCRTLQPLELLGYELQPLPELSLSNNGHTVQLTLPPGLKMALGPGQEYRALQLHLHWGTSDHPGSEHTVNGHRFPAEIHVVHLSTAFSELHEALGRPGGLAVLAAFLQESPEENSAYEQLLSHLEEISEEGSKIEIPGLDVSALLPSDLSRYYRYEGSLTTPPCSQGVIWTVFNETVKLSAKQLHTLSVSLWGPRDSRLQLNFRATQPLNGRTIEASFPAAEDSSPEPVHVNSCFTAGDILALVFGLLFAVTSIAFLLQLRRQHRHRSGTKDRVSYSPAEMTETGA

Take [^111In]In-DPI-4452 (peptide): in test [1], the Bmax came to 5.6 fmol/µg prot and the negative logarithm of the Kd (pKd) was 7.2 -log10(M). Moreover, the Mean Bmax in test [2] stood at 5.6 fmol/µg prot.

Source of the values: patent US20250339569A1, “CARBONIC ANHYDRASE IX LIGANDS” (priority 2021, published 2025).
